This note sets out measurements from FireProtDB (doi:10.1074/jbc.m112.408906).

B1: Myocilin, Q99972 (parent)
chain: MRFFCARCCSFGPEMPAVQLLLLACLVWDVGARTAQLRKANDQSGRCQYTFSVASPNESSCPEQSQAMSVIHNLQRDSSTQRLDLEATKARLSSLESLLHQLTLDQAARPQETQEGLQRELGTLRRERDQLETQTRELETAYSNLLRDKSVLEEEKKRLRQENENLARRLESSSQEVARLRRGQCPQTRDTARAVPPGSREVSTWNLDTLAFQELKSELTEVPASRILKESPSGYLRSGEGDTGCGELVWVGEPLTLRTAETITGKYGVWMRDPKPTYPYTQETTWRIDTVGTDVRQVFEYDLISQFMQGYPSKVHILPRPLESTGAVVYSGSLYFQGAESRTVIRYELNTETVKAEKEIPGAGYHGQFPYSWGGYTDIDLAVDEAGLWVIYSTDEAKGAIVLSKLNPENLELEQTWETNIRKQSVANAFIICGTLYTVSSYTSADATVNFAYDTGTGISKTLTIPFKNRYKYSSMIDYNPLEKKLFAWDNLNMVTYDIKLSKM

The variants in this series derive from B1. The settings on record: Homo sapiens, pH 6, Thermal, CD, Sodium acetate 10mM, reversible: no, structure 4WXQ, whole UniProt chain shown.

Turning to MRFFCARCCSFGPEMPAVQLLLLACLVWDVGARTAQLRKANDQSGRCQYTFSVASPNESSCPEQSQAMSVIHNLQRDSSTQRLDLEATKARLSSLESLLHQLTLDQAARPQETQEGLQRELGTLRRERDQLETQTRELETAYSNLLRDKSVLEEEKKRLRQENENLARRLESSSQEVARLRRGQCPQTRDTARAVPPGSREVSTWNLDTLAFQELKSELTEVPASRILKESPSGYLRSGEGDTGCGELVWVREPLTLRTAETITGKYGVWMRDPKPTYPYTQETTWRIDTVGTDVRQVFEYDLISQFMQGYPSKVHILPRPLESTGAVVYSGSLYFQGAESRTVIRYELNTETVKAEKEIPGAGYHGQFPYSWGGYTDIDLAVDEAGLWVIYSTDEAKGAIVLSKLNPENLELEQTWETNIRKQSVANAFIICGTLYTVSSYTSADATVNFAYDTGTGISKTLTIPFKNRYKYSSMIDYNPLEKKLFAWDNLNMVTYDIKLSKM [G252R], under “CaCl2 1mM”, the Tm (in general, the temperature at the midpoint of the melting transition) was 43 °C and the “change of melting temperature, mutant - wild type (higher = more stable)” value (“change of melting temperature, mutant” below) is -10 °C. In addition, for the setting “CaCl2 10mM”, the Tm stood at 51.5 °C and the “change of melting temperature, mutant” value was -8.1 °C.

As for MRFFCARCCSFGPEMPAVQLLLLACLVWDVGARTAQLRKANDQSGRCQYTFSVASPNESSCPEQSQAMSVIHNLQRDSSTQRLDLEATKARLSSLESLLHQLTLDQAARPQETQEGLQRELGTLRRERDQLETQTRELETAYSNLLRDKSVLEEEKKRLRQENENLARRLESSSQEVARLRRGQCPQTRDTARAVPPGSREVSTWNLDTLAFQELKSELTEVPASRILKESPSGYLRSGEGDTGCRELVWVGEPLTLRTAETITGKYGVWMRDPKPTYPYTQETTWRIDTVGTDVRQVFEYDLISQFMQGYPSKVHILPRPLESTGAVVYSGSLYFQGAESRTVIRYELNTETVKAEKEIPGAGYHGQFPYSWGGYTDIDLAVDEAGLWVIYSTDEAKGAIVLSKLNPENLELEQTWETNIRKQSVANAFIICGTLYTVSSYTSADATVNFAYDTGTGISKTLTIPFKNRYKYSSMIDYNPLEKKLFAWDNLNMVTYDIKLSKM [G246R], the Tm reads like this: (CaCl2 1mM) 42.5 °C; (CaCl2 10mM) 50.6 °C. In addition, the “change of melting temperature, mutant” value is -10.5 °C (CaCl2 1mM) and -9 °C (CaCl2 10mM).

In the case of MRFFCARCCSFGPEMPAVQLLLLACLVWDVGARTAQLRKANDQSGRCQYTFSVASPNESSCPEQSQAMSVIHNLQRDSSTQRLDLEATKARLSSLESLLHQLTLDQAARPQETQEGLQRELGTLRRERDQLETQTRELETAYSNLLRDKSVLEEEKKRLRQENENLARRLESSSQEVARLRRGQCPQTRDTARAVPPGSREVSTWNLDTLAFQELKSELTEVPASRILKESPSGYLRSGEGDTGCGELVWVGEPLTLRTAETITGKYGVWMGDPKPTYPYTQETTWRIDTVGTDVRQVFEYDLISQFMQGYPSKVHILPRPLESTGAVVYSGSLYFQGAESRTVIRYELNTETVKAEKEIPGAGYHGQFPYSWGGYTDIDLAVDEAGLWVIYSTDEAKGAIVLSKLNPENLELEQTWETNIRKQSVANAFIICGTLYTVSSYTSADATVNFAYDTGTGISKTLTIPFKNRYKYSSMIDYNPLEKKLFAWDNLNMVTYDIKLSKM [R272G], the Tm came to 41 °C (CaCl2 1mM) and 48.6 °C (CaCl2 10mM). Also, the “change of melting temperature, mutant” value runs as follows: (CaCl2 1mM) -12 °C; (CaCl2 10mM) -11 °C.
